Experimental data as given in patent US20260146091A1 (published 2026).

T1: biotinylated mPD-1-Fc (BPS Bioscience) (mouse, UniProt Q02242 25-169, biotinylated (site not stated))
T1 chain: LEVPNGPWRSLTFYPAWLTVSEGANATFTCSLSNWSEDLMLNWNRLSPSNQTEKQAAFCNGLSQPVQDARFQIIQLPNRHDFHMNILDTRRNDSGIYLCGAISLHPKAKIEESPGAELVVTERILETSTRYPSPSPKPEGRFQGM


Legend:
[1] = target: T1, biotinylated mPD-1-Fc (BPS Bioscience); assay: mPD-1/mPD-L1 binding inhibition
[2] = target: hPD-1-Fc (human PD-1 ectodomain fused to human IgG1 Fc, R&D) (human, UniProt Q15116 25-170); assay: hPD-1/hPD-L1 binding inhibition
[3] = target: mPD-L1-Fc (mouse PD-L1 ectodomain fused to human IgG1 Fc, BioLegend) (mouse, UniProt Q9EP73 19-239); assay: mPD-1/mPD-L1 binding inhibition
[4] = target: biotinylated hPD-L1 fused to human IgG Fc (BPS Bioscience) (human, UniProt Q9NZQ7 19-238, biotinylated (site not stated)); assay: hPD-1/hPD-L1 binding inhibition
biotinylated hPD-L1 fused to human IgG Fc (BPS Bioscience), sequence (Q9NZQ7 19-238): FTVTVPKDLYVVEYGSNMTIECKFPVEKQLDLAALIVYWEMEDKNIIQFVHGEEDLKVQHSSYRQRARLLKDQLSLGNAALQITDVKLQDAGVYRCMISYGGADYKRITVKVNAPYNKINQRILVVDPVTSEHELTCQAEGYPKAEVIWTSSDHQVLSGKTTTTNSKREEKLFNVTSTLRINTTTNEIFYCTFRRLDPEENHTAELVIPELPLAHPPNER

mPD-L1-Fc (mouse PD-L1 ectodomain fused to human IgG1 Fc, BioLegend), sequence (Q9EP73 19-239): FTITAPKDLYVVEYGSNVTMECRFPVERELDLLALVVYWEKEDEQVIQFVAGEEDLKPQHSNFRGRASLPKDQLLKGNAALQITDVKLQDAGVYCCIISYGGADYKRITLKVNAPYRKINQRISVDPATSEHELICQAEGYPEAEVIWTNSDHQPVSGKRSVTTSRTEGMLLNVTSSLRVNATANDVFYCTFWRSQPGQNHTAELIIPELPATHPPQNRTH
hPD-1-Fc (human PD-1 ectodomain fused to human IgG1 Fc, R&D), sequence (Q15116 25-170): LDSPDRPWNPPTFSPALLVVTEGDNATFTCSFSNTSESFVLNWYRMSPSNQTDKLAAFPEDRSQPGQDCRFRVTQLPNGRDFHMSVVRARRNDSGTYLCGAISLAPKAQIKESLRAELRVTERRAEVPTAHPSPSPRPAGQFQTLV

Row | IC50 [1] | IC50 [2] | IC50 [3] | IC50 [4] | Binder
1 | 0.0439 nM | 0.147 nM | – | – | Nb11-Fc (Nb11 fused to mouse IgG1 Fc domain including hinge) (Fc fusion) AQVQLVQSGGGSVQAGDSLRLSCAVSGHPDSSYSMAWFRQAPGKERELVALISWSGAITHYSDSVKDRFTISRDNAKNEMYLQMDSLKPEDTAVYFCQADDPTSELNQYWGQGTQVTVSSGCKPCICTVPEVSSVFIFPPKPKDVLTITLTPKVTCVVVDISKDDPEVQFSWFVDDVEVHTAQTQPREEQFNSTFRSVSELPIMHQDWLNGKEFKCRVNSAAFPAPIEKTISKTKGRPKAPQVYTIPPPKEQMAKDKVSLTCMITDFFPEDITVEWQWNGQPAENYKNTQPIMDTDGSYFVYSKLNVQKSNWEAGNTFTCSVLHEGLHNHHTEKSLSHSPGK
2 | – | – | 6.85 nM | 3.34 nM | Nb6p (anti-PD-L1 nanobody) (VHH) VHH: EVQLVESGGGLVQAGGSLRLSCAAAGRSFNSNAMGWVRQAPGKEREIVAVISATGSYTYYEDSVKGRFTISRDNSKNTVSLQMSSLSSEDTAVYYCAGSRTAALTTIMTLFNYWGQGTQVTVSS
3 | 1.71 nM | 5.85 nM | – | – | Nb11 (anti-PD-1 nanobody) (VHH) VHH: QVQLVQSGGGSVQAGDSLRLSCAVSGHPDSSYSMAWFRQAPGKERELVALISWSGAITHYSDSVKDRFTISRDNAKNEMYLQMDSLKPEDTAVYFCQADDPTSELNQYWGQGTQVTVSS
4 | – | – | 0.889 nM | 0.498 nM | Nb6p-Fc (Nb6p fused to mouse IgG2a Fc domain including hinge) (Fc fusion) AEVQLVESGGGLVQAGGSLRLSCAAAGRSFNSNAMGWVRQAPGKEREIVAVISATGSYTYYEDSVKGRFTISRDNSKNTVSLQMSSLSSEDTAVYYCAGSRTAALTTIMTLFNYWGQGTQVTVSSPGPRGPTIKPCPPCKCPAPNLLGGPSVFIFPPKIKDVLMISLSPIVTCVVVDVSEDDPDVQISWFVNNVEVHTAQTQTHREDYNSTLRVVSALPIQHQDWMSGKEFKCKVNNKDLPAPIERTISKPKGSVRAPQVYVLPPPEEEMTKKQVTLTCMVTDFMPEDIYVEWTNNGKTELNYKNTEPVLDSDGSYFMYSKLRVEKKNWVERNSYSCSVVHEGLHNHHTTKSFSRTPGK
